The source of these data is patent US20230416375A1 (VERSAPEUTICS, published 2023).

Read-outs that look alike come from different tables or passages of the source.

For assay [1], the target named is full length human RYK (human, UniProt P34925 26-607). The assay can be described thus: cell-based or functional assay.
Assay [2] deals with … variants with 12P exchanged by other amino acids. Nature of the assay: peptide microarray substitution scan, Ab5.5_var1 at 100 µg/mL.
For assay [3], the target named is … variants with 13V replaced by other amino acids. Described as above.
Assay [4] addresses … variants with 7R replaced by other amino acids. The description is as above.
Assay [5] has as its target … variants with 8T exchanged by other amino acids. The assay is described as above.
Assay [6] has as its target T1, wild type peptide LDKNTSRTIYDPVHA (SEQ ID NO:32) (human).
T1 construct: Printed on a peptide microarray; also called Homo sapiens Ryk(206-220)
T1 peptide: LDKNTSRTIYDPVHA
Described as above.

The target of assay [7] is T2, … variant with 9I exchanged by L (human).
T2 construct: Substitution scan peptide
T2 peptide: LDKNTSRTLYDPVHA
The description is as above.

The target in assay [8] is T3, full length mouse RYK (mouse, UniProt Q01887 35-594).
T3 construct: Expressed from a plasmid (Macheda et al.) in HEK293, and the lysate was probed by Western blot; also called Mus musculus Ryk
Nature of the assay: Western blot of RIPA lysates (30 µg per lane) of transfected HEK293 cells, Ab5.5_Var1 at 1 µg/mL, anti-human secondary, LI-COR detection. For orientation: Immunoblotting shows a protein as a band on a membrane.

The target in assay [9] is T4, peptides with the consensus motif TSRTIYDPV (SEQ ID NO:28) (human).
T4 construct: The array spots were adjacent 15-mers of human Ryk 134-227 sharing this motif; also called Homo sapiens Ryk(210-218)
T4 peptide: TSRTIYDPV
Nature of the assay: PEPperMAP linear epitope mapping: microarray of 15-mer peptides (14 aa overlap) of human Ryk 134-227, antibody at 10 µg/mL, goat anti-human IgG (Fc) DyLight680.

Assay [10] addresses T5, peptides with the highly basic consensus motif SSKNFTVLNFKRRK (SEQ ID NO:29) (human).
T5 construct: Array spots were 15-mers sharing this motif; also called Homo sapiens Ryk(179-192)
T5 peptide: SSKNFTVLNFKRRK
Described as above.

Assay [11] concerns the target T6, peptides with the highly basic consensus motif TVLNFKRRKMCYKK (SEQ ID NO:30) (human).
T6 construct: Array spots were 15-mers sharing this motif; also called Homo sapiens Ryk(184-197)
T6 peptide: TVLNFKRRKMCYKK
The description is as above.

The target of assay [12] is T7, peptides with the highly basic consensus motif RRKMCYKKLEEVK (SEQ ID NO:31) (human).
T7 construct: Array spots were 15-mers sharing this motif; also called Homo sapiens Ryk(190-202)
T7 peptide: RRKMCYKKLEEVK
The description is as above.

Assay [13] addresses T7, peptides with the highly basic …. The assay can be described thus: PEPperMAP linear epitope mapping: microarray of 15-mer peptides (14 aa overlap) of human Ryk 134-227, goat anti-human IgG (Fc) DyLight680.
The target of assay [14] is T4, peptides with the consensus motif …. Nature of the assay: PEPperMAP linear epitope mapping: microarray of 15-mer peptides (14 aa overlap) of human Ryk 134-227, antibody at 100 µg/mL, goat anti-human IgG (Fc) DyLight680.
The target of assay [15] is T8, single peptide NSSKNFTVLNFKRRK (SEQ ID NO:35) (human).
T8 construct: also called Homo sapiens Ryk(178-192)
T8 peptide: NSSKNFTVLNFKRRK
The assay is described as above.

In assay [16] the target is T9, peptides with the basic consensus motif VLNFKRRKMCYKK (SEQ ID NO:36) (human).
T9 construct: Array spots were 15-mers sharing this motif; also called Homo sapiens Ryk(185-197)
T9 peptide: VLNFKRRKMCYKK
The description is as above.

The target in assay [17] is T4, peptides with the consensus motif …. The assay can be described thus: PEPperMAP linear epitope mapping: microarray of 15-mer peptides (14 aa overlap) of human Ryk 134-227, antibody at 10 µg/mL, goat anti-human IgG (Fc) DyLight680.
Assay [18] deals with T5, peptides with the highly basic …. Described as above.
Assay [19] has as its target T6, peptides with the highly basic …. Described as above.
Assay [20] addresses T7, peptides with the highly basic …. Described as above.
For assay [21], the target named is … variants with 10Y exchanged by other amino acids. Nature of the assay: peptide microarray substitution scan, Ab5.5 at 1 µg/mL.
The target of assay [22] is … variants with 11D exchanged by other amino acids. Described as above.
Assay [23] addresses … variants with 12P exchanged by other amino acids. The description is as above.
The target in assay [24] is … variants with 13V replaced by other amino acids. The description is as above.
Assay [25] has as its target … variants with 7R replaced by other amino acids. The description is as above.
In assay [26] the target is … variants with 8T exchanged by other amino acids. The assay is described as above.
Assay [27] has as its target T1, wild type peptide LDKNTSRTIYDPVHA (SEQ …). Described as above.
Assay [28] has as its target T2, … variant with 9I exchanged by L. The assay is described as above.

B1: Ab5.5_var1 (antibody, V domains shown)
VH: EVQLVESGGGLVQPGGSLRLSCAASGFTFSSYTMSWIRQAPGKGLEWVAYISNGGGGTYYPDSVKGRFTISRDNAKNTLYLQMNSLRAEDTAVYYCTRHGDNGDYWGHGSLVTVSS
VL: DIQMTQSPSSLSASVGDRVTITCKASQDINSYLSWIQQKPGKAPKTLIYRANRLVDGVPSRFSGSGSGTDYTLTISSLQPEDFATYYCLQYDEFPLTFGAGTKVEIK
notes: Detected with anti-human IgG (Fc); also called variant 1; v1
Take B1: the “IC50 of inhibition of canonical Wnt signaling (luciferase reporter) in HEK 293 STF cells stimulated with 250 ng/mL human Wnt-3a” value in assay [1] is 484 µg/mL. Further, the % lower spot intensity than the wild type peptide was 35% in assay [2], more than 62% in assay [3], more than 70% in assay [4] and 7.5% in assay [5]. For the same molecule, the binding result in assay [6], in assay [7], in [8], in assay [9], in assay [10] and in assay [11] was “binds” throughout. Also, in [12], the binding result was “binds”.

B2: Ab5.5_var10 (antibody, V domains shown)
VH: EVQLVESGGGLVQPGGSLRLSCAASGFTFSSYTMSWIRQAPGKGLEWAAYISTGGGGTYYVDSVKGRFTISRDNAKNSLYLQMNSLRAEDTAVYYCTRHGDNGDYWGHGSLVTVSS
VL: DIQMTQSPSSLSASVGDRATITCKASQDINSYLSWIQQKPGKAPKTLIYRANRLVDGVPSRFSGSGSGTDYTLTISSLQPEDFATYYCLQYDEFPLTFGGGTKVEIK
notes: Detected with anti-human IgG; also called variant 10; v10
Regarding B2, the binding result in assay [13] is recorded as “no binding (tested: 100 µg/mL)”; in assay [14] it was “binds”; in assay [15] it was “binds”; in [16], “binds”.

B3: Ab5.5_var2 (antibody, V domains shown)
VH: EVQLVESGGGLVQPGGSLRLSCAASGFTFSSYTMSWIRQAPGKGLEWVAYISNGGGGTYYPDSVKGRFTISRDNAKNSLYLQMNSLRAEDTAVYYCTRHGDNGDYWGQGSLVTVSS
VL: DIQMTQSPSSLSASVGDRVTITCKASQDINSYLSWIQQKPGKAPKTLIYRANRLVDGVPSRFSGSGSGTDYTLTISSLQPEDFATYYCLQYDEFPLTFGAGTKVEIK
notes: Detected with anti-human IgG; also called Variant 2; variant 2
B3: the binding result in assay [17], in assay [18], in assay [19] and in [20] was “binds” in each case.

B4: Ab5.5 (antibody, V domains shown)
VH: EVKLVESGGDLVQPGGSLKLSCAASGFTFSSYTMSWIRQTPEKRLEWVAYISNGGGGTYYPDTVKGRFTISRDNAKNTLYLQMNSLKSEDTAMYYCTRHGDNGDYWGHGSTLTVSS
VL: DIKMTQSPSSMYASLGERVTITCKASQDINSYLSWIQQKPGKSPKTLIYRANRLVDGVPSRFSGSGSGQDYSLTISSLEYEDMGIYYCLQYDEFPLTFGAGTKLELK
notes: Parental murine variable domains; also called Chimera antibody; Parental
Take B4: the % lower spot intensity than the wild type peptide in assay [21] is more than 83%; in [22], more than 83%; in assay [23], 33%; in [24], more than 58%; in assay [25] it was more than 67%; in assay [26], 27%. The binding result in assay [27] and in [28] was “binds” in each case.
